B1: Guanyl-specific ribonuclease Sa, P05798 (parent)
chain: DVSGTVCLSALPPEATDTLNLIASDGPFPYSQDGVVFQNRESVLPTQSYGYYHEYTVITPGARTRGTRRIITGEATQEDYYTGDHYATFSLIDQTC

Variants of: B1
Conditions: Kitasatospora aureofaciens, pH 7, Thermal, CD, MOPS 30 mM, reversible: yes(>95%), structure 1RGG, whole UniProt chain shown; for ddG of mutation (higher = less stable): 48.4 °C

| Variant | ddG of mutation (higher = less stable) [kcal/mol] | Tm [°C] | change of melting temperature, mutant - wild type (higher = more stable) [°C] | unfolding enthalpy (van 't Hoff) [kcal/mol] |
| --- | --- | --- | --- | --- |
| DVSGTVCLSALPPEATDTLNLIASDGPFPYSQDGVVFQNRESVLPTQSYGYYHEYTVITPGARTRGTRRIITGEATQEDYYVGDHYATFSLIDQTC [T82V] | 1.7 | 42.7 | -5.7 | 81 |
| DVSGVVCLSALPPEATDTLNLIASDGPFPYSQDGVVFQNRESVLPTQSYGYYHEYTVITPGARTRGTRRIITGEATQEDYYTGDHYATFSLIDQTC [T5V] | 0 |  |  |  |
| DVSGTVCLSALPPEAVDTLNLIASDGPFPYSQDGVVFQNRESVLPTQSYGYYHEYTVITPGARTRGTRRIITGEATQEDYYTGDHYATFSLIDQTC [T16V] | -0.3 | 49.4 | 1 | 88 |
| DVSGTVCLSALPPEATDTLNLIASDGPFPYSQDGVVFQNRESTLPTQSYGYYHEYTVITPGARTRGTRRIITGEATQEDYYTGDHYATFSLIDQTC [V43T] | 0.5 | 46.8 | -1.6 | 93 |
| DTSGTVCLSALPPEATDTLNLIASDGPFPYSQDGVVFQNRESVLPTQSYGYYHEYTVITPGARTRGTRRIITGEATQEDYYTGDHYATFSLIDQTC [V2T] | 0.9 | 45.2 | -3.2 | 86 |
| DVSGTVCLSALPPEATDTLNLIASDGPFPYSQDGVVFQNRESVLPTQSYGYYHEYTVIVPGARTRGTRRIITGEATQEDYYTGDHYATFSLIDQTC [T59V] | 1.7 | 42.8 | -5.6 | 81 |
| DVSGTVCLSALPPEATDTLNLIASDGPFPYSQDGVVFQNRESVLPTQSYGYYHEYVVITPGARTRGTRRIITGEATQEDYYTGDHYATFSLIDQTC [T56V] | 1.9 | 42.1 | -6.3 | 85 |
| DVSGTVCLSALPPEATDTLNLIASDGPFPYSQDGVTFQNRESVLPTQSYGYYHEYTVITPGARTRGTRRIITGEATQEDYYTGDHYATFSLIDQTC [V36T] | 1.3 | 43.8 | -4.6 | 88 |
| DVSGTVCLSALPPEATDTLNLIASDGPFPYSQDGVVFQNRESVLPTQSYGYYHEYTTITPGARTRGTRRIITGEATQEDYYTGDHYATFSLIDQTC [V57T] | 4.4 | 33.4 | -15 | 74 |
| DVSGTVCLSALPPEATDTLNLIASDGPFPYSQDGVVFQNRESVLPTQSYGYYHEYTVITPGARTRGTRRIIVGEATQEDYYTGDHYATFSLIDQTC [T72V] | 0.2 | 47.6 | -0.8 | 91 |
| DVSGTVCLSALPPEATDTLNLIASDGPFPYSQDGVVFQNRESVLPTQSYGYYHEYTVITPGARTRGVRRIITGEATQEDYYTGDHYATFSLIDQTC [T67V] | 0 | 48.3 | -0.1 | 88 |
| DVSGTVCLSALPPEATDVLNLIASDGPFPYSQDGVVFQNRESVLPTQSYGYYHEYTVITPGARTRGTRRIITGEATQEDYYTGDHYATFSLIDQTC [T18V] | 1.4 | 43.7 | -4.7 | 80 |
